According to patent US20210054076A1 (Chugai, published 2021):

T1: human CLDN3 (human, UniProt O15551 1-220)
T1 construct: whole, on cells; also called hCLDN3; BaF3_hCLDN3
T1 sequence (looked up): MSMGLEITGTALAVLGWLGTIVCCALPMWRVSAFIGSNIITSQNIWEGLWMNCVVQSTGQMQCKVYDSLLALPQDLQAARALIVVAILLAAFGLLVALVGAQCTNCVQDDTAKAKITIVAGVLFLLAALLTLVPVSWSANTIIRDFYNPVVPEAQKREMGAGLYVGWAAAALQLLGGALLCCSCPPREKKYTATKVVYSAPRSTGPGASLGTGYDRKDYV

T2: mouse CLDN4 (mouse, UniProt O35054 1-210)
T2 construct: whole, on cells; also called mCLDN4; BaF3_mCLDN4
T2 sequence (looked up): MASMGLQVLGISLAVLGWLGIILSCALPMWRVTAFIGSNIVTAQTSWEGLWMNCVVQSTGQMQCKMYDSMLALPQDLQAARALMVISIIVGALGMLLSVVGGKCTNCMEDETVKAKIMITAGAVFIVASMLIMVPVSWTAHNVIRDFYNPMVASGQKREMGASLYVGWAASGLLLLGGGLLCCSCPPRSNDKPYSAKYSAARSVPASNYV

T3: human CLDN6 (human, UniProt P56747 1-220)
T3 sequence: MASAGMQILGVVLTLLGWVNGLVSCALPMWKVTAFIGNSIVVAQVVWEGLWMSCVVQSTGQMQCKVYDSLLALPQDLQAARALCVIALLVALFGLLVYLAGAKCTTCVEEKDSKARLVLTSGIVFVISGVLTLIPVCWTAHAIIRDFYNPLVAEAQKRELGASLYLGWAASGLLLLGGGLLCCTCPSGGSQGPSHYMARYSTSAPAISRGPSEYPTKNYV

T4: mouse CLDN3 (mouse, UniProt Q9Z0G9 1-219)
T4 construct: whole, on cells; also called mCLDN3; BaF3_mCLDN3
T4 sequence (looked up): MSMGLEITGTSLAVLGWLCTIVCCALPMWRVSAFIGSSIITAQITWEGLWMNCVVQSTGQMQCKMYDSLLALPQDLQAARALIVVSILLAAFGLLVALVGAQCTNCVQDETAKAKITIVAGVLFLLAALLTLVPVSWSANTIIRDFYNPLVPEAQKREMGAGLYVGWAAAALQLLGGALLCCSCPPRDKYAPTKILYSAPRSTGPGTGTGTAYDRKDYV

T5: hCLDN6(Q156L) (human, UniProt P56747 1-220)
T5 construct: Stably expressed on Ba/F3 cells; also called human CLDN6 mutant; BaF3_hCLDN6(Q156L)
T5 chain: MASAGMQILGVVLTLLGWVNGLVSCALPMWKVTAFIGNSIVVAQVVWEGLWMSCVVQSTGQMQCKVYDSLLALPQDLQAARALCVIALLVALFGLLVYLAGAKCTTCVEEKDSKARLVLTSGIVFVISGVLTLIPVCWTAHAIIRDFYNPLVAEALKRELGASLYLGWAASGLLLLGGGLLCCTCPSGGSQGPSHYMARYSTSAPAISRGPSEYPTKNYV

T6: mouse CLDN6 (mouse, UniProt Q9Z262 1-219)
T6 construct: whole, on cells; also called mCLDN6; BaF3_mCLDN6
T6 sequence (looked up): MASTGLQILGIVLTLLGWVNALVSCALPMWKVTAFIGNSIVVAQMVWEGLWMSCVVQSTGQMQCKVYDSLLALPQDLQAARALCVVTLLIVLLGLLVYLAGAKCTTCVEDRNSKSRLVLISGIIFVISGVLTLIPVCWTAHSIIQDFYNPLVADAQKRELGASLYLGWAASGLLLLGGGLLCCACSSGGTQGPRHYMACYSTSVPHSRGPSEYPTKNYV

T7: human CLDN9 (human, UniProt O95484 1-217)
T7 construct: whole, on cells; also called hCLDN9; BaF3_hCLDN9
T7 sequence (looked up): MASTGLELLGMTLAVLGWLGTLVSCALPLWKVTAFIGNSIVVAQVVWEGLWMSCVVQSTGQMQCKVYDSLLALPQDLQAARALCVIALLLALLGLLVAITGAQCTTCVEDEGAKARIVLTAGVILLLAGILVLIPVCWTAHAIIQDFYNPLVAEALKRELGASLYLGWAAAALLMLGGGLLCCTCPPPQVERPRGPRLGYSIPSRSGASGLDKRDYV

T8: human CLDN4 (human, UniProt O14493 1-209)
T8 construct: whole, on cells; also called hCLDN4; BaF3_hCLDN4
T8 sequence (looked up): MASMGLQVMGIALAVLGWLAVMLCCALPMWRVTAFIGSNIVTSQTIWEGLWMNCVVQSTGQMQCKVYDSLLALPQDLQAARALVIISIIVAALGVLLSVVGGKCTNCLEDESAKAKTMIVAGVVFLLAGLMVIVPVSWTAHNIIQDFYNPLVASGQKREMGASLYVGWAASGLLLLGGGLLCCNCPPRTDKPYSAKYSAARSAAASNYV


How the values were obtained:
[1] = target: T1, human CLDN3; experiment: FACS on Ba/F3 transfectant, antibody 20 micro g/ml, FITC anti-human IgG
Experimental: (§1) To evaluate the binding activity and specificity of the generated CLDN6-TRABs against CLDN6 and other Claudin family antigens, FACS analysis was conducted as follows. Ba/F3 transfectants stably express a kind of protein selected from human CLDN3 (hCLDN3), human CLDN4 (hCLDN4), human CLDN6 (hCLDN6), human CLDN9 (hCLDN9), mouse CLDN3 (mCLDN3), mouse CLDN4 (mCLDN4) and mouse CLDN6 (mCLDN6), were generated using similar method described in WO2008/087978, and named BaF3_hCLDN3, BaF3_hCLDN4, BaF3_hCLDN6, BaF3_hCLDN9, BaF3 mCLDN3, BaF3 mCLDN4, BaF3 mCLDN6, respectively. Each of the CLDN6-TRABs (CH01/CD3, CH02/CD3, CH03/CD3, CH04/CD3) was incubated with the Ba/F3 transfectants at an antibody concentration of 20 micro g/ml in FACS buffer (0.5% BSA containing autoMACS Rinsing Solution, Miltenyl Biotec). Binding activities of each CLDN6-TRAB to the Claudin family proteins (hCLDN3, hCLDN4, hCLDN6, hCLDN9, mCLDN3, mCLDN4, mCLDN6) were examined by incubation of FITC-conjugated goat anti human IgG (BeckmanCoulter), represented as Geo-mean value. Sample processing was conducted on FACSVerse (BD).
(§2) Claudin family proteins have two extracellular domains. The sequence of the first extracellular domain in human CLDN9 is almost the same compared with the first extracellular domain of human CLDN6. For the second extracellular domain of human CLDN9, there are only two amino acids different from the ones at their corresponding positions in human CLDN6 (FIG. 2). The glutamine at position 156 of human Claudin 6 (position 156 in the sequence shown in SEQ ID NO: 44 or 45) was substituted to leucine to make a human CLDN6 mutant comprising the same amino acid as human Claudin 9 at position 156. This human CLDN6 mutant was named as hCLDN6(Q156L) (SEQ ID NO: 53). Ba/F3 transfectant stably express hCLDN6(Q156L) was generated using similar method described in WO2008/087978. The established Ba/F3 transfectant was named BaF3_hCLDN6(Q156L). Binding activity of the generated CLDN6-TRABs against BaF3_hCLDN6(Q156L) was measured using the above mentioned FACS method and the results are shown in FIG. 1 and Table 3.

[2] = target: T2, mouse CLDN4; experiment: as above
Experimental: as §1, §2

[3] = target: T3, human CLDN6; experiment: as above
Experimental: as §1, §2

[4] = target: T4, mouse CLDN3; experiment: as above
Experimental: as §1, §2

[5] = target: T5, hCLDN6(Q156L); experiment: as above
Experimental: as §1, §2

[6] = target: T6, mouse CLDN6; experiment: as above
Experimental: as §1, §2

[7] = target: T7, human CLDN9; experiment: as above
Experimental: as §1, §2

[8] = target: T8, human CLDN4; experiment: as above
Experimental: as §1, §2

[9] = target: T3, human CLDN6; experiment: cell-based or functional assay
[10] = target: T3, human CLDN6; experiment: cell-based or functional assay; remark: listed apart in the source

| Geo-mean value of FACS [1] | Geo-mean value of FACS [2] | Geo-mean value of FACS [3] | Geo-mean value of FACS [4] | Geo-mean value of FACS [5] | Geo-mean value of FACS [6] | Geo-mean value of FACS [7] | Geo-mean value of FACS [8] | EC50 (read off the curve), Jurkat/NFAT-RE luciferase reporter, target cells PA-1 [9] [nM] | EC50 (read off the curve), Jurkat/NFAT-RE luciferase reporter, target cells ABC-1 [10] [nM] | Molecule |
| --- | --- | --- | --- | --- | --- | --- | --- | --- | --- | --- |
| 78 | 31 | 29 | 29 | 62 | 43 | 96 | 42 | – | – | isotype control (antibody) |
| 37 | 22 | 4740 | 27 | 69 | 1760 | 84 | 35 | ~0.03 | ~0.05 | CH02/CD3 (bispecific antibody, human IgG1, kappa, N297A, Made by Fab arm exchange of the bivalent anti-CLDN6 antibody CH02 with the bivalent anti-CD3 antibody CD3-1; human IgG1 constant region; One anti-CLDN6 arm and one anti-CD3 arm; also called CLDN6-TRAB; CLDN6-targeted T-cell redirecting bispecific antibody) heavy 1: EVQVEQSGLELVKPGASVKISCKTSGYTFTEYTMHWVKQSHGKSLEWIGGINPNNGNTRYNQKFKDKATLTVDKSSRTAYMELHTLTSEDSAVYYCARCGDYDLFFFFAYWGQGTLVTVSAASTKGPSVFPLAPSSKSTSGGTAALGCLVKDYFPEPVTVSWNSGALTSGVHTFPAVLQSSGLYSLSSVVTVPSSSLGTQTYICNVNHKPSNTKVDKKVEPKSCDKTHTCPPCPAPELRGGPKVFLFPPKPKDTLMISRTPEVTCVVVDVSHEDPEVKFNWYVDGVEVHNAKTKPREEQYASTYRVVSVLTVLHQDWLNGKEYKCKVSNKALPAPIEKTISKAKGQPREPQVYTLPPSREEMTKNQVSLTCLVKGFYPSDIAVEWESNGQPENNYKTTPPYLDSDGSFFLYSKLTVDKSRWQQGNVFSCSVMHEALHNHYTQESLSLSP light 1: DIVMTQFQKFMSTSVGDRVSVTCKASQNVGTNVAWYQQKPGQSPEALISSASSRFSGVPDRFTGSGSGTDFTLTITNVQSEDLADYFCQQYNSFPFTFGSGTELEIKRTVAAPSVFIFPPSDEQLKSGTASVVCLLNNFYPREAKVQWKVDNALQSGNSQESVTEQDSKDSTYSLSSTLTLSKADYEKHKVYACEVTHQGLSSPVTKSFNRGEC heavy 2: QVQLVESGGGVVQPGGSLRLSCAASGFTFSNAWMHWVRQAPGKGLEWVAQIKDKSQNYATYVAESVKGRFTISRADSKNSIYLQMNSLKTEDTAVYYCRYVHYAAGYGVDIWGQGTTVTVSSASTKGPSVFPLAPSSKSTSGGTAALGCLVKDYFPEPVTVSWNSGALTSGVHTFPAVLQSSGLYSLSSVVTVPSSSLGTQTYICNVNHKPSNTKVDKKVEPKSCDKTHTCPPCPAPELRGGPKVFLFPPKPKDTLMISRTPEVTCVVVDVSHEDPEVKFNWYVDGVEVHNAKTKPREEQYASTYRVVSVLTVLHQDWLNGKEYKCKVSNKALPAPIEKTISKAKGQPREPQVYTLPPSRKEMTKNQVSLTCLVKGFYPSDIAVEWESNGQPENNYKTTPPYLDSDGSFFLYSKLTVDKSRWQQGNVFSCSVMHEALHNHYTQKSLSLSP light 2: DIVMTQSPLSLPVTPGEPASISCRSSQPLVHSNRNTYLHWYQQKPGQAPRLLIYKVSNRFSGVPDRFSGSGSGTDFTLKISRVEAEDVGVYYCGQGTQVPYTFGQGTKLEIKRTVAAPSVFIFPPSDEQLKSGTASVVCLLNNFYPREAKVQWKVDNALQSGNSQESVTEQDSKDSTYSLSSTLTLSKADYEKHKVYACEVTHQGLSSPVTKSFNRGEC |
